Experimental findings from PMC4492466 are described below.

The experiment has as its target Cdh1 (UniProt Q9R1K5). As to the kind of experiment: Flag IP of Cdh1, HA-FMRP blot. As to conditions: reference: wild type FMRP; sites S499.

In the case of FMRP (from UniProt P35922) S499A, the “binding against the reference” value is “stronger”.
